Here are results for one molecule from patent publication US20230227577A1 (MYTHIC THERAPEUTICS, published 2023).

As usually defined, the Kd is the concentration at which binding is half-saturated. The kon is the second-order rate constant of association.

The target in one assay is T1, mouse DLL3 on CHO cells (mouse, UniProt O88516 33-592).
T1 construct: whole, on cells; also called CHO cells expressing mouse DLL3
T1 sequence (looked up): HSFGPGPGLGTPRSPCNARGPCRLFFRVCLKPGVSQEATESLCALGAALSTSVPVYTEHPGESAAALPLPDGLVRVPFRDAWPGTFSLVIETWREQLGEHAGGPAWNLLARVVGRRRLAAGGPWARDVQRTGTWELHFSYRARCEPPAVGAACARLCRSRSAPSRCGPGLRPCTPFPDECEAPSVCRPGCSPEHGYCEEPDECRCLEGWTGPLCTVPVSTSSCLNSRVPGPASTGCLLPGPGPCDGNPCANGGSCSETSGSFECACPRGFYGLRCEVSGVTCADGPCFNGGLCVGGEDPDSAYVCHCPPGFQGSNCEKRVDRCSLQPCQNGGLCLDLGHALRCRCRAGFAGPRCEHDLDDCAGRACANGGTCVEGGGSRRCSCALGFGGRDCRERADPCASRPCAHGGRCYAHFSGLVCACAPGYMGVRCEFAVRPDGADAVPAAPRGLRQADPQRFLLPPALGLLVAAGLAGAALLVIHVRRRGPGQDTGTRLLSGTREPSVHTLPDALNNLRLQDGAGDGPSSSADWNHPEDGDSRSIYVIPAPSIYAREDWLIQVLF
Briefly: flow cytometry (FACS) on CHO cells expressing mouse DLL3. As for the experimental part:
(§1) Additional experiments were carried out to further characterize the binding properties of the anti-DLL3 constructs. Binding properties tested include dissociation constant (KD), off-rate (koff), binding to DLL3 protein by ELISA and binding to CHO cells expressing human, cyno or mouse DLL3. To obtain off-rate (koff), human biotinylated DLL3 was immobilized on Octet SA tips, and cynomolgus or mouse DLL3 was immobilized on Octet AR2G tips. For each DLL3 protein, the binding to a dilution series of each anti-DLL3 construct was measured using Fortebio Octet Red. The dissociation constant (KD), off-rate (koff) and other kinetic parameters for each anti-DLL3 construct were calculated using a 1:1 binding model. In addition, binding of these anti-DLL3 constructs to CHO cells expressing human, cyno or mouse DLL3 protein was analyzed using flow cytometry (FACS).
In general terms: Flow cytometry measures light scatter and fluorescence of single cells or particles in a stream.

The target of assay [1] is T2, DLL3 target antigen coated on Octet SA tips (binning experiment) (Homo sapiens (Human), UniProt Q9NYJ7 27-492, Probably biotinylated for capture on streptavidin (SA) tips. The site is not stated.).
T2 sequence: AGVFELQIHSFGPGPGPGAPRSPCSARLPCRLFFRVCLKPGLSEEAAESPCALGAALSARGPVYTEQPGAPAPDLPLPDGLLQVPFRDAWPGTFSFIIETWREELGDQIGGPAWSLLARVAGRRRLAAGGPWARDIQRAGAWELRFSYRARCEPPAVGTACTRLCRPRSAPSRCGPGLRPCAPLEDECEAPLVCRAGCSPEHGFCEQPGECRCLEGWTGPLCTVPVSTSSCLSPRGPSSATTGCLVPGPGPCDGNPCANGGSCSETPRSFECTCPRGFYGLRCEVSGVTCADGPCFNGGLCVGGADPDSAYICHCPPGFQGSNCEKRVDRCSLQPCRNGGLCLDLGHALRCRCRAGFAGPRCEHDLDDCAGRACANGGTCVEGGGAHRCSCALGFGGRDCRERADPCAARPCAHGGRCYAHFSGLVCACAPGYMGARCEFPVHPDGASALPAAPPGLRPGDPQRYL
Briefly: Octet binning on DLL3-coated SA tips; competitor: 3HCE56. As for the experimental part:
(§2) Antibody binning experiments were carried out for 5 anti-DLL3 VHHs and an anti-human DLL3 BiTE (SEQ ID NO: 756). The target antigen was coated on a series of Octet SA tips. Each series of tips was first soaked in a periplasmic extract containing one specific VHH. After the response signals reached saturation, the tips were transferred to a mix of PEs containing again the first VHH (at the same concentration) plus a different VHH (termed secondary VHH) for each tip of the series. Secondary VHH that still bind the target antigen in the presence of the first VHH will show an increased response, as compared to the binding response of the first VHH alone. This was repeated for each VHH as primary VHH until all VHH were tested against each other in both directions (as primary and as secondary binder). From the response data, the bins were deduced for each VHH. 2HCE117 and 3HCE4 show competition with the human DLL3 BiTEs, whereas 3HCE56 and 3HCE87 show a partial competition.
For orientation: In BLI a coated tip is dipped into the sample, and binding shifts an interference pattern.

Assay [2] concerns the target T2, DLL3 target antigen coated on Octet SA …. In words: Octet binning on DLL3-coated SA tips; competitor: 3HCE87. The procedure: as §2
For assay [3] the target is unchanged. In words: Octet binning on DLL3-coated SA tips; competitor: 2HCE117. The procedure: as §2
The target is the same in assay [4]. Briefly: Octet binning on DLL3-coated SA tips; competitor: DLL3 BiTEs. The procedure: as §2
The next assay deals with T3, DLL3 (ELISA DLL3).
T3 construct: also called DLL3 protein in ELISA
T3 chain: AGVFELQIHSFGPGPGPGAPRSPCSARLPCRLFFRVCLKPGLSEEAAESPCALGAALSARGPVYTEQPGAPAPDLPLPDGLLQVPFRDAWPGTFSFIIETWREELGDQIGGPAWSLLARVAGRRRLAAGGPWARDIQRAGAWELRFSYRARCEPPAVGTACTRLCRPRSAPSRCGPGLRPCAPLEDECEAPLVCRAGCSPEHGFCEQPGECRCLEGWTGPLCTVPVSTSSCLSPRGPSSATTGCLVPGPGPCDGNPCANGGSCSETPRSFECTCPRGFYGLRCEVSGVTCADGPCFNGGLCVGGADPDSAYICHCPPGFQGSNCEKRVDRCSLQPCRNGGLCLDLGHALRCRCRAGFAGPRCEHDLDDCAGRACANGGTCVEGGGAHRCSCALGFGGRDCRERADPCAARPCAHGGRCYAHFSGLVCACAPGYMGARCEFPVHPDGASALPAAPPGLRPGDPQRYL
In words: ELISA, ratio of the signal on DLL3 to the signal on the control. Background: ELISA stands for enzyme-linked immunosorbent assay.

Assay [5] addresses T4, recombinant human DLL3 protein (human, UniProt Q9NYJ7 27-492, limits assumed).
T4 construct: also called rhu DLL3; human biotinylated DLL3
T4 sequence (looked up): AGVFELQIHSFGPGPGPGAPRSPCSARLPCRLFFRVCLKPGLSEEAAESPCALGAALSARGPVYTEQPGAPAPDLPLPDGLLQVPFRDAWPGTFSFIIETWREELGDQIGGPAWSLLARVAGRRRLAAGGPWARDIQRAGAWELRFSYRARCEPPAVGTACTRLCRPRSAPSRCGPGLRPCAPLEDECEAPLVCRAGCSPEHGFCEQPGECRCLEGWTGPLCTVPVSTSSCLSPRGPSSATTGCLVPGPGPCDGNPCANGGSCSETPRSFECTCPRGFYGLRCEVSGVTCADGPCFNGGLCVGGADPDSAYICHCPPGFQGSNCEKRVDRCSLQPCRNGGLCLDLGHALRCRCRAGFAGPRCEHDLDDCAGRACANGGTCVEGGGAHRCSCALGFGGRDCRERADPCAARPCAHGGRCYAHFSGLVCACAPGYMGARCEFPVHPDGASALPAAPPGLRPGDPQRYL
In words: Fortebio Octet Red, DLL3 immobilised on tips, dilution series of the VHH, 1:1 binding model; KD error 1.39E-11; Full R2 0.9994. The procedure: as §1

In assay [6] the target is T4, recombinant human DLL3 protein. Briefly: Fortebio Octet Red, DLL3 immobilised on tips, dilution series of the VHH, 1:1 binding model; kon error 1.20E+02; Full R2 0.9994. The procedure: as §1

B1: 2HCE27 anti-DLL3 VHH (VHH)
VHH: QVQLQESGGGLVQAGGSLRLSCAASGRTFRSYAMGWFRQAPGKEREFIAVIIMSDGSTSYADSVKGRFTISRDNAKNTLYLQMNSLKPEDTAVYYCAARRDYFTGVYDYWGQGTQVTVSS
notes: In the binning assay it was used as a periplasmic extract; also called anti-DLL3 (2HCE27)
Turning to B1, the binding result with mouse DLL3 on CHO cells is given as “binds”. In addition, the “binning response (unit not given)” value in assay [1] came out at 6500; in assay [2], 87.5; in assay [3] it was 19900; in assay [4] it was 83.4. In the assay with DLL3 (ELISA DLL3), the DLL3 / control worked out at 33.3. The Kd in assay [5] came out at 7.89 nM. Besides, the on-rate (kon) in assay [6] turned out to be 80900 M⁻¹ s⁻¹.
